In PMC9523049:

Target: Mec1-Ddc2 heterodimer (yeast (endogenous in cultured yeast cells)) (UniProt P38111)
Experiment: cryo-EM structure; Mec1-Ddc2 complex endogenously purified from yeast cells treated with HU (HU-Dimer1, HU-Dimer2) or MMS (MMS-Dimer)

Mec1-Ddc2 heterodimer, P38111 1-2368; Q04377 1-747
stoichiometry N: 2
